Results as given in publication PMC5866560 (Proceedings of the National Academy of Sciences of the …, 2018).

Target: T1, recombinant Bri2 protein covering residues 113 to 231 comprising the BRICHOS domain (human, UniProt Q9Y287-1 113-231)
T1 sequence (looked up): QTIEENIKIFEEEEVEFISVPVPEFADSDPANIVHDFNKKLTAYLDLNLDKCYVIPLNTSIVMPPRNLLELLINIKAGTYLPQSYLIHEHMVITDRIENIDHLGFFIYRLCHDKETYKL
Experiment: immuno-electron microscopy

- binding result: binds
Binder: KCNTATCATQRLANFLVHSSNNFGAILSSTNVGSNTY (peptide, UniProt P10997 34-70, looked up) [islet amyloid polypeptide IAPP 1–37]
